± gives the standard deviation of the averaged measurements.
Columns and labels:
hTERT-HMEC = assay: percentage of EdU-negative (G0-arrested) nuclei per well, 72 h; higher = more G0 arrest; details: reference: sequence is the full UniProt precursor, the tested protein was the secreted form or ectodomain
MCF7 = assay: as above; details: reference: sequence is the full UniProt precursor, the tested protein was the secreted form or ectodomain
[1] = protein concentration 0.0225 µM
[2] = protein concentration 0.023905 µM
[3] = protein concentration 0.23905 µM
[4] = protein concentration 0.0079375 µM
[5] = protein concentration 0.00885714 µM
[6] = protein concentration 0.0357143 µM
[7] = protein concentration 0.079375 µM
[8] = protein concentration 0.0885714 µM
[9] = protein concentration 0.357143 µM
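Further: secreted proteins added to cultured cells, EdU pulse at the end, nuclei found by Hoechst imaging, EdU status from nuclear versus surrounding ring intensity ratio, PBS as neutral control.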

## MSCPVPACCALLLVLGLCRARPRNALLLLADDGGFESGAYNNSAIATPHLDALARRSLLFRNAFTSVSSCSPSRASLLTGLPQHQNGMYGLHQDVHHFNSFDKVRSLPLLLSQAGVRTGIIGKKHVGPETVYPFDFAYTEENGSVLQVGRNITRIKLLVRKFLQTQDDRPFFLYVAFHDPHRCGHSQPQYGTFCEKFGNGESGMGRIPDWTPQAYDPLDVLVPYFVPNTPAARADLAAQYTTVGRMDQGVGLVLQELRDAGVLNDTLVIFTSDNGIPFPSGRTNLYWPGTAEPLLVSSPEHPKRWGQVSEAYVSLLDLTPTILDWFSIPYPSYAIFGSKTIHLTGRSLLPALEAEPLWATVFGSQSHHEVTMSYPMRSVQHRHFRLVHNLNFKMPFPIDQDFYVSPTFQDLLNRTTAGQPTGWYKDLRHYYYRARWELYDRSRDPHETQNLATDPRFAQLLEMLRDQLAKWQWETHDPWVCAPDGVLEEKLSPQCQPLHNEL
hTERT-HMEC; [1]
  percentage of EdU-negative: 5.35 ± 1.4%
hTERT-HMEC; protein concentration 0.225 µM
  percentage of EdU-negative: 7.84 ± 0.29%
MCF7; [1]
  percentage of EdU-negative: 28.4 ± 3.8%
MCF7; protein concentration 0.225 µM
  percentage of EdU-negative: 26.4 ± 0.34%

## MDYPTLLLALLHVYRALCEEVLWHTSVPFAENMSLECVYPSMGILTQVEWFKIGTQQDSIAIFSPTHGMVIRKPYAERVYFLNSTMASNNMTLFFRNASEDDVGYYSCSLYTYPQGTWQKVIQVVQSDSFEAAVPSNSHIVSEPGKNVTLTCQPQMTWPVQAVRWEKIQPRQIDLLTYCNLVHGRNFTSKFPRQIVSNCSHGRWSVIVIPDVTVSDSGLYRCYLQASAGENETFVMRLTVAEGKTDNQYTLFVAGGTVLLLLFVISITTIIVIFLNRRRRRERRDLFTESWDTQKAPNNYRSPISTSQPTNQSMDDTREDIYVNYPTFSRRPKTRV
hTERT-HMEC; [1]
  percentage of EdU-negative: 4.86 ± 0.72%
hTERT-HMEC; protein concentration 0.225 µM
  percentage of EdU-negative: 5.13 ± 0.67%
MCF7; [1]
  percentage of EdU-negative: 25.5 ± 2.7%
MCF7; protein concentration 0.225 µM
  percentage of EdU-negative: 23.8 ± 1.8%

## MRRLLIPLALWLGAVGVGVAELTEAQRRGLQVALEEFHKHPPVQWAFQETSVESAVDTPFPAGIFVRLEFKLQQTSCRKRDWKKPECKVRPNGRKRKCLACIKLGSEDKVLGRLVHCPIETQVLREAEEHQETQCLRVQRAGEDPHSFYFPGQFAFSKALPRS
hTERT-HMEC; [1]
  percentage of EdU-negative: 4.71 ± 0.87%
hTERT-HMEC; protein concentration 0.225 µM
  percentage of EdU-negative: 5.88 ± 0.56%
MCF7; [1]
  percentage of EdU-negative: 27.7 ± 0.92%
MCF7; protein concentration 0.225 µM
  percentage of EdU-negative: 26.6 ± 2.6%

## MAPRRARGCRTLGLPALLLLLLLRPPATRGITCPPPMSVEHADIWVKSYSLYSRERYICNSGFKRKAGTSSLTECVLNKATNVAHWTTPSLKCIRDPALVHQRPAPPSTVTTAGVTPQPESLSPSGKEPAASSPSSNNTAATTAAIVPGSQLMPSKSPSTGTTEISSHESSHGTPSQTTAKNWELTASASHQPPGVYPQGHSDTTVAISTSTVLLCGLSAVSLLACYLKSRQTPPLASVEMEAMEALPVTWGTSSRDEDLENCSHHL
hTERT-HMEC; [2]
  percentage of EdU-negative: 5.18 ± 0.25%
hTERT-HMEC; [3]
  percentage of EdU-negative: 6.6 ± 0.68%
MCF7; [2]
  percentage of EdU-negative: 27.1 ± 0.76%
MCF7; [3]
  percentage of EdU-negative: 25.6 ± 2.6%

## MKPPRPVRTCSKVLVLLSLLAIHQTTTAEKNGIDIYSLTVDSRVSSRFAHTVVTSRVVNRANTVQEATFQMELPKKAFITNFSMIIDGMTYPGIIKEKAEAQAQYSAAVAKGKSAGLVKATGRNMEQFQVSVSVAPNAKITFELVYEELLKRRLGVYELLLKVRPQQLVKHLQMDIHIFEPQGISFLETESTFMTNQLVDALTTWQNKTKAHIRFKPTLSQQQKSPEQQETVLDGNLIIRYDVDRAISGGSIQIENGYFVHYFAPEGLTTMPKNVVFVIDKSGSMSGRKIQQTREALIKILDDLSPRDQFNLIVFSTEATQWRPSLVPASAENVNKARSFAAGIQALGGTNINDAMLMAVQLLDSSNQEERLPEGSVSLIILLTDGDPTVGETNPRSIQNNVREAVSGRYSLFCLGFGFDVSYAFLEKLALDNGGLARRIHEDSDSALQLQDFYQEVANPLLTAVTFEYPSNAVEEVTQNNFRLLFKGSEMVVAGKLQDRGPDVLTATVSGKLPTQNITFQTESSVAEQEAEFQSPKYIFHNFMERLWAYLTIQQLLEQTVSASDADQQALRNQALNLSLAYSFVTPLTSMVVTKPDDQEQSQVAEKPMEGESRNRNVHSGSTFFKYYLQGAKIPKPEASFSPRRGWNRQAGAAGSRMNFRPGVLSSRQLGLPGPPDVPDHAAYHPFRRLAILPASAPPATSNPDPAVSRVMNMKIEETTMTTQTPAPIQAPSAILPLPGQSVERLCVDPRHRQGPVNLLSDPEQGVEVTGQYEREKAGFSWIEVTFKNPLVWVHASPEHVVVTRNRRSSAYKWKETLFSVMPGLKMTMDKTGLLLLSDPDKVTIGLLFWDGRGEGLRLLLRDTDRFSSHVGGTLGQFYQEVLWGSPAASDDGRRTLRVQGNDHSATRERRLDYQEGPPGVEISCWSVEL
hTERT-HMEC; [4]
  percentage of EdU-negative: 4.26 ± 0.31%
hTERT-HMEC; [5]
  percentage of EdU-negative: 5.26 ± 0.59%
hTERT-HMEC; [6]
  percentage of EdU-negative: 4.65 ± 0.14%
hTERT-HMEC; [7]
  percentage of EdU-negative: 6.25 ± 0.86%
hTERT-HMEC; [8]
  percentage of EdU-negative: 5.26 ± 0.17%
hTERT-HMEC; [9]
  percentage of EdU-negative: 5.86 ± 0.71%
MCF7; [4]
  percentage of EdU-negative: 26.1 ± 0.6%
MCF7; [5]
  percentage of EdU-negative: 24.7 ± 1.9%
MCF7; [6]
  percentage of EdU-negative: 25.598 ± 0.0074%
MCF7; [7]
  percentage of EdU-negative: 27.8 ± 0.46%
MCF7; [8]
  percentage of EdU-negative: 22.7 ± 1.4%
MCF7; [9]
  percentage of EdU-negative: 24.7 ± 1.2%
